Each block holds one molecule with its values, some of them ahead of it.
Legend:
[1] = biological target: FKBP and FRB (FKBP binding part of FRAP) (Homo sapiens, UniProt P42345+P62942); experiment: Rapamycin-inducible FKBP:FRB split-EYFP complementation, CHO-hIR [PS1767+PS1768] cells; type: cell-based; conditions: 1 μM rapamycin
Experimental: Probes were co-transfected in pairs into CHO-hIR cells (supra), PS1769 with PS1771 and PS1767 with PS1768, using the transfection agent FuGENE™ 6 (Boehringer Mannheim Corp, USA) according to the method recommended by the suppliers. Cells were cultured in growth medium (HAM's F12 nutrient mix with Glutamax-1, 10% foetal bovine serum (FBS), 100 μg penicillin-streptomycin mixture ml^−1 (GibcoBRL, supplied by Life Technologies, Denmark)). Transfected cells were cultured in this medium, with the addition of two selection agents appropriate to the plasmids being used, being 1 mg/ml zeocin plus 0.5 mg/mlG418 sulphate. Cells were cultured at 37° C. in 100% humidity and conditions of normal atmospheric gases supplemented with 5% CO2.
After 10 to 12 days culture in the continuous presence of the selection agents, the resulting cell lines were judged to be stably transfected. For fluorescence microscopy, aliquots of cells were transferred to Lab-Tek chambered cover glasses (Nalge Nunc International, Naperville USA) and allowed to adhere for at least 24 hours to reach about 80% confluence. Images were routinely collected using a Nikon Diaphot 300 inverted fluorescence microscope (Nikon Corp., Tokyo, Japan) using x20 (dry) and/or x40 (oil immersion) objectives and coupled to a Orca ER charged coupled device (CCD) camera (Hammamatsu Photonics K.K., Hammamatsu City, Japan). […]

[2] = tested on: translocation of β-catenin to the nucleus (GSK3β inhibited by lithium ions); experiment: TDCzip: β-catenin translocation dependent complementation with leucine zippers, CHO[ps1736+ps1758]; type: cell-based, chinese hamster; conditions: 5 mM LiCl for 16 hours
Source text: In this example, complementary halves of GFP are fused separately to β-catenin and to histone H2B and co-expressed within cells. The β-catenin construct is expected to be localised entirely in the cell cytoplasm at a low level, its concentration effectively controlled by the activity of the protein kinase GSK3β. The H2B construct will be localised in the nuclei of cells by the highly basic histone moeity. […] However, when GSK3β is inhibited by lithium ions, the cytoplasmic level of the β-catenin construct is expected to increase in the cytoplasm, and to translocate in significant fashion to the nucleus. Both constructs have been engineered to contain a leucine zipper domain. […] The development of nuclear fluorescence in lithium-treated cells therefore effectively reports on the translocation of β-catenin to the nucleus. […]
After 10 to 12 days culture in the continuous presence of the selection agents, the resulting cell lines were judged to be stably transfected. For fluorescence microscopy, aliquots of cells were transferred to Lab-Tek chambered cover glasses (Nalge Nunc International, Naperville USA) and allowed to adhere for at least 24 hours to reach about 80% confluence. […] Image collection, subsequent measurement and analysis of fluorescence intensity were all controlled by IPLab Spectrum for Windows software (Scanalytics, Fairfax, Va. USA). […]

[3] = tested on: β-catenin translocation to the nucleus and interaction with TCF4 (GSK3β inhibited by lithium ions); experiment: TIDC: β-catenin translocation and β-catenin:TCF4 interaction dependent complementation, CHO[ps1706+ps1810]; type: cell-based, chinese hamster; conditions: 5 mM LiCl for 16 hours
Source text: In this example, complementary halves of GFP are fused separately to β-catenin and also to histone H2B coupled to the β-catenin-binding fragment of the transcriptional co-activator TCF4. Both constructs are then co-transfected and expressed within mammalian cells. The β-catenin construct is expected to be localised entirely in the cell cytoplasm at a low level, its concentration effectively controlled by the activity of the protein kinase GSK3β. The H2B-TCF4 construct will be localised in the nuclei of cells by the highly basic histone moeity. […] The development of nuclear fluorescence in lithium-treated cells therefore effectively reports on the combined result of translocation of β-catenin to the nucleus and the subsequent interaction between β-catenin and the β-catenin binding domain of TCF4. […]
After 10 to 12 days culture in the continuous presence of the selection agents, the resulting cell lines were judged to be stably transfected. For fluorescence microscopy, aliquots of cells were transferred to Lab-Tek chambered cover glasses (Nalge Nunc International, Naperville USA) and allowed to adhere for at least 24 hours to reach about 80% confluence. Images were collected using a Zeiss LSM410 inverted confocal fluorescence microscope (Zeiss, Jena, Germany) using x40 (oil immersion) objective. […]

[4] = tested on: translocation of β-catenin to the nucleus (GSK3β inhibited by lithium; FKBP:FRB induced by rapamycin); experiment: TDCrap: β-catenin translocation dependent complementation with rapamycin-inducible FKBP:FRB, CHO ps1809 with ps1827; type: cell-based, chinese hamster; conditions: 5 mM LiCl for 16 hours
Source text: In this example, complementary halves of GFP are fused separately to β-catenin and to histone H2B and co-expressed within cells. The β-catenin construct is expected to be localised entirely in the cell cytoplasm at a low level, its concentration effectively controlled by the activity of the protein kinase GSK3β. The H2B construct will be localised in the nuclei of cells by the highly basic histone moeity. […] Both constructs have also been engineered to contain inducible interaction domains. […] The H2B construct includes FRB, which is the 93 amino acid portion of FRAP, the large PI3Kinase homolog FRAP (also known as mTOR or RAFT).
Plasmids ps1809 with ps1827 were co-transfected into chinese hamster ovary cells (CHO) using the transfection agent FuGENE™ 6 (Boehringer Mannheim Corp, USA) according to the method recommended by the suppliers. […]
After 10 to 12 days culture in the continuous presence of the selection agents, the resulting cell lines were judged to be stably transfected. For fluorescence microscopy, aliquots of cells were transferred to Lab-Tek chambered cover glasses (Nalge Nunc International, Naperville USA) and allowed to adhere for at least 24 hours to reach about 80% confluence. […] Images were collected using a Zeiss LSM410 inverted confocal fluorescence microscope (Zeiss, Jena, Germany) using x40 (oil immersion) objective. […]

[5] = biological target: FRB-CtermEYFP173 (human; Aequorea victoria) (UniProt P42345); experiment: cell-based or functional assay
[6] = biological target: FKBP-CtermEYFP173 (human; Aequorea victoria) (UniProt P62942); experiment: cell-based or functional assay

proportion of cells with significantly greater EYFP fluorescence ([1]; after 4 hours): approximately 40%
proportion of the cell population responding ([1]; after 16 hours): approximately 70%
Molecule: CO[C@H]1C[C@@H]2CC[C@@H](C)[C@@](O)(O2)C(=O)C(=O)N2CCCC[C@H]2C(=O)O[C@H]([C@H](C)C[C@@H]2CC[C@@H](O)[C@H](OC)C2)CC(=O)[C@H](C)/C=C(\C)[C@@H](O)[C@@H](OC)C(=O)[C@H](C)C[C@H](C)/C=C/C=C/C=C/1C [rapamycin]

Molecule: [Cl-].[Li+] [LiCl, lithium chloride]
cells with GFP-bright nuclei [2]: a fraction of these cells display GFP-bright nuclei
number of cells containing fluorescent GFP (nuclear) [3]: the number of cells containing fluorescent GFP increases greatly
number of cells containing fluorescent GFP (nuclear) [4]: the number of cells containing fluorescent GFP increases greatly

EC50 of FK506 in competition with 100 nM rapamycin, EYFP fluorescence/cell, 16 hours, 'black' group [5]: 1200 nM
Molecule: NtermE[F64L]YFP172-FKBP (from UniProt P62942 1-108)

EC50 of FK506 in competition with 100 nM rapamycin, EYFP fluorescence/cell, 16 hours, 'mid to low-green' group [6]: 1200 nM
EC50 of rapamycin, dose-response of EYFP fluorescence at 7 and 30 hours, 'black' FACS group [6]: 100 nM
EC50 of rapamycin, dose-response of EYFP fluorescence at 7 and 30 hours, 'medium to low-green' FACS group [6]: 250 nM
half-time for development of cellular EYFP fluorescence after 3 µM rapamycin [6]: 5 h
increase in EYFP fluorescence with rapamycin over the unstimulated value, 'medium to low-green' and 'black' FACS groups [6]: > 20 fold
share of cells responding 16 hours after 1 µM rapamycin [6]: 70 % of cells
share of cells with EYFP fluorescence before rapamycin (t=0) [6]: < 5 % of cells
share of cells with greater EYFP fluorescence 4 hours after 1 µM rapamycin [6]: 40 % of cells
Molecule: NtermE[F64L]YFP172-FRB (from UniProt P42345 2025-2114)

Source: patent US20060247419A1, “Translocation dependent complementation for drug screening” (BioImage A/S, priority 2002, published 2006)
